Test results reported in patent US20230159935, “[…] BIFUNCTIONAL […] AND TRIFUNCTIONAL […] TARGETING Tau” (UNIVERSITY OF FLORIDA RESEARCH FOUNDATION, INCORPORATED, published 2023).

B1: IT2a Tau aptamer (13-base extended) (ssDNA)
DNA: TGACTGATTTACGGAAGCTGAATAAGGACTGCTTAGGATTGCGATGATTCAGCTTC
B2: Circular Tau-TfR bispecific aptamer (structured_DNA)
DNA: TGACTGATTTACGGAAGCTGAATAAGGACTGCTTAGGATTGCGATGATTCAGCTTCCGTAAATCAGTCAGAAGGCGTGGTACCACGCTTTC
B3: BW1 (ssDNA)
DNA: TCACCTGAGACTTGACGATGGCATCACTCCCCCCCACCTATTACATCATCATAAATTGAGTGCTATCGTCTGTCCA
B4: BW1c (ssDNA)
DNA: GACGATAGCATCACTCCCCCCCACCTATTACATCATCATAAATTGAGTGCTATCGTC
B5: BW2 (ssDNA)
DNA: TCACCTGAGACTTGACGATGGCCTCCCCCTCACGCACTCTTCCGTTTCTTCTTATCTGAGTGCTATCGTCTGTCCA
B6: BW3 (ssDNA)
DNA: TCACCTGAGACTTGACGATGGAACTCCCCCCACCATTATCAGCGCACCACCATTGTAGAGTGCTATCGTCTGTCCA
B7: BW4 (ssDNA)
DNA: TCACCTGAGACTTGACGATGGTTTAACTCCCCCACGCCCCCCGCCAACCCATCTCCAGAGTGCTATCGTCTGTCCA
B8: BW5 (ssDNA)
DNA: TCACCTGAGACTTGACGATGGTACGACGGCCCCCCGATTATGCGACTACTTGATTTGAGTGCTATCGTCTGTCCA
B9: BW6 (ssDNA)
DNA: TCACCTGAGACTTGACGATGGTCAGAACGACGCGCCCCCCACCTCATTCATTATTTTGAGTGCTATCGTCTGTCCA
B10: BW7 (ssDNA)
DNA: TCACCTGAGACTTGACGATGGTGACCACCCCCCACGCACACACACCTCTTCCATCCTGAGTGCTATCGTCTGTCCA
B11: BW8 (ssDNA)
DNA: TCACCTGAGACTTGACGATGGCACTACCCCTCCCTACTAAGCACGGTATCTTGTACTGAGTGCTATCGTCTGTCCA
B12: BW9 (ssDNA)
DNA: TCACCTGAGACTTGACGATGGGAACAAACACCGCGACCACCCCCCCACTTAACTCCTGAGTGCTATCGTCTGTCCA
B13: BW10 (ssDNA)
DNA: TCACCTGAGACTTGACGATGGCAATCCCCCCGACACCGAATCCTAAGCGAACAACGCGAGTGCTATCGTCTGTCCA

What was measured:
[1] = target: T1, Bovine serum albumin (BSA) (Bos taurus, UniProt P02769 P02769:25-607); experiment: EMSA; profile stated same as circular aptamer; settings: label: FITC-dT near 3' end; hairpin
Description: (§1) To determine the specificity of the circular aptamer against Tau441 protein, 5 μL of 400 nM Tau (IT2a) aptamer or circular aptamer were first incubated with 0.2 mg/mL target Tau441 protein or control proteins (S100B, BSA) at 4° C. for 30 minutes. Then, each sample was loaded onto an 8% native PAGE gel. The gel was run in 1×TBE at 70 V for 10 minutes and 150 V for 40 minutes. Finally, the gel was stained with Coomassie blue for protein detection and scanned in the fluorescein channel using Typhoon for aptamer detection.
(§2) After interaction, each sample was loaded onto the nondenaturing gel for protein detection with Coomassie Brilliant Blue staining (FIG. 13A) and aptamer fluorescence (FIG. 13B) detection. […] Five microliters of 400 nM Tau (IT2a) aptamer or circular aptamer was first incubated with 0.2 mg/mL target Tau441 protein or control proteins at 4° C. for 30 minutes. […] For FIG. 13A and FIG. 13 B, Lanes 1 and 6: Ladder; Lane 2: IT2a aptamer; Lane 3: IT2a aptamer+Tau441 (67 kDa); Lane 4: IT2a aptamer+S100B (9 kDa); Lane 5: IT2a aptamer+BSA (66 kDa); Lane 7: Circular aptamer; Lane 8: Circular aptamer+Tau411 (67 kDa); Lane 9: Circular aptamer+S100B (9 kDa); Lane 10: Circular aptamer+BSA (66 kDa).

Tau441 (2N4R tau) [2] = target: T2, Tau441 (2N4R tau) (Homo sapiens, UniProt P10636-8 P10636-8:1-441); experiment: EMSA; 400 nM aptamer, 0.2 mg/mL protein, 4 C; settings: tags: N-terminal His-tag, SignalChem (biotin-labelled for functional SELEX and BLI)
Description: as §1, §2

[3] = target: T1, Bovine serum albumin (BSA); experiment: EMSA; specificity control; settings: label: one or two FITC-dT
Description: as §1, §2

Tau441 (2N4R tau) [4] = target: T2, Tau441 (2N4R tau); experiment: dot blot, 250 nM; best flow cytometry shift; Kd only in figure; settings: tags: N-terminal His-tag, SignalChem (biotin-labelled for functional SELEX and BLI); label: FAM or 5' Cy5
Description: (§3) FIG. 38A is the flow cytometry results analyzing primary binding between aptamer candidates and Tau 441. FIG. 38B is a dot blot assay showing aptamer binding specificity. FIG. 38A Primary binding analysis between aptamer candidates and Tau 441. FIG. 38B Aptamers binding specificity by dot blot assay. The nitrocellulose membranes were socked in methanol until becoming wet (1 min) then the membranes were washed with PBST solution for 5 mins. BSA, Casein, IgG, Tau and P-Tau (1 μg per protein) were respectively immobilized as striped dots on the NC membranes by air-drying. The membranes were blocked with 1% fat-free milk in PBST for 1 hour and incubated with heat-denatured aptamers (250 nM) labeled with FAM for 1 hour at room temperature. Control DNA were random sequence DNA with FAM label. The membranes were washed three times with TBST. Dots were scanned by Typhoon Imaging System (Amersham Biosciences).
The preliminary investigation of binding ability between aptamers and Tau441 was validated by flow cytometry. […] Furthermore, the binding specificity of the selected tau aptamers to full-length Tau441 protein was confirmed by dot blotting by incubating each of the FAM-labeled aptamers with nitrocellulose membranes which have already been immobilized with either target Tau441 protein or nontarget proteins (FIG. 38B). […]

[5] = target: T1, Bovine serum albumin (BSA); experiment: dot blot
Description: as §3
(§4) The preliminary investigation of binding ability between aptamers and Tau441 was validated by flow cytometry. […] Furthermore, the binding specificity of the selected tau aptamers to full-length Tau441 protein was confirmed by dot blotting by incubating each of the FAM-labeled aptamers with nitrocellulose membranes which have already been immobilized with either target Tau441 protein or nontarget proteins (FIG. 38B). […] No cross-reactivity was observed between the aptamers and the nontarget proteins, including: α casein, β casein, BSA (bovine serum albumin), and IgG (immunoglobin G). Particularly, the membranes were blocked by milk after immobilizing with each protein which further illustrated the strong specificity of the obtained aptamers.

Tau441 (2N4R tau) [6] = target: T2, Tau441 (2N4R tau); experiment: dot blot, 100 nM; stronger than BW1, BW1a, BW1b; settings: tags: N-terminal His-tag, SignalChem (biotin-labelled for functional SELEX and BLI); label: 5' Cy5
Description: The nitrocellulose membranes were socked in methanol till it becomes wet (1 min) then the membranes were washed with TBST solution for 5 mins. Tau protein (stripped band 0.5 μg) were dripped on the NC membranes in every dot and then waited to dry (2 mins). The membranes were blocked with 1% fat-free milk in TBST for 1 hour and were respectively incubated with series of heat denatured aptamers (250 nM) for 1 hour in blocking buffer (contain 0.5 mM Mg²⁺) at room temperature. Next the membrane was washed for three times by TBST, 5 min for each time. Dots were scanned simultaneously by a Typhoon Imaging System (Amersham Biosciences).

Tau441 (2N4R tau) [7] = target: T2, Tau441 (2N4R tau); experiment: dot blot, 250 nM; settings: tags: N-terminal His-tag, SignalChem (biotin-labelled for functional SELEX and BLI); label: FAM
Description: as §3, §4

T2 sequence (P10636 other isoform, or with tags, fused parts or gaps): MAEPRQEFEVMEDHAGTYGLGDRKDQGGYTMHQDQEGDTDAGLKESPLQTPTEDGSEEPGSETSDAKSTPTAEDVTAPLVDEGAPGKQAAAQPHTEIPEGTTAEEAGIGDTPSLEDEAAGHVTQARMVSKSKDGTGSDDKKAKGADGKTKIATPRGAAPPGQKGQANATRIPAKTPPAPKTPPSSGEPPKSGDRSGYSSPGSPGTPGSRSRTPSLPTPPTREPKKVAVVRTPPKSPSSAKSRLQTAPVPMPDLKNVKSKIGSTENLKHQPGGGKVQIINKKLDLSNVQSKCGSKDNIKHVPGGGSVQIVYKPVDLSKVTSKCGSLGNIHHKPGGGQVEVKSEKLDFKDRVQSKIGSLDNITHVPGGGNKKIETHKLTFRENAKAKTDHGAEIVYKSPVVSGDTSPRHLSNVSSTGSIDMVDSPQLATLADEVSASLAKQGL
T1 sequence (P02769 25-607, one chain of several): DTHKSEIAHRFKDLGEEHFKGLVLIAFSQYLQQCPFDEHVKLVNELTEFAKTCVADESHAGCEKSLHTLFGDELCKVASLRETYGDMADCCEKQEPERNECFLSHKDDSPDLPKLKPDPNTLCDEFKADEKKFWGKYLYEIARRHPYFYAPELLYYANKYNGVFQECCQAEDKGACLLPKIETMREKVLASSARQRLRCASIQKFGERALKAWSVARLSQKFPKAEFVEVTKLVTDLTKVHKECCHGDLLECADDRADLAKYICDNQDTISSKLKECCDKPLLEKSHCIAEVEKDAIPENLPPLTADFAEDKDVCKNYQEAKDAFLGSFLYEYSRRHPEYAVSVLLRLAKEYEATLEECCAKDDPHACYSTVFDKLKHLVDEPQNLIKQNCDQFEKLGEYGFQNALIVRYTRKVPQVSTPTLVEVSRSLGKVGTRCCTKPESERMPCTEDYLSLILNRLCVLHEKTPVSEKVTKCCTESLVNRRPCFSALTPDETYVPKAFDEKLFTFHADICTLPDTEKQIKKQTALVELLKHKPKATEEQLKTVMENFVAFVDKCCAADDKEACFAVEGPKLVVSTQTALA

| Binder | binding result (Tau441 (2N4R tau) [7]) | binding result ([5]; label: FAM) | also measured |
| --- | --- | --- | --- |
| B1 | – | – | binding result [1]: no binding; binding result (Tau441 (2N4R tau) [2]; label: FITC-dT near 3' end, hairpin): binds |
| B2 | – | – | binding result (Tau441 (2N4R tau) [2]; label: one or two FITC-dT): binds; binding result [3]: no binding |
| B3 | – | – | binding result (Tau441 (2N4R tau) [4]): binds; binding result ([5]; label: FAM or 5' Cy5): no binding |
| B4 | – | – | binding result (Tau441 (2N4R tau) [6]): binds |
| B5 | binds | no binding | – |
| B6 | binds | no binding | – |
| B7 | binds | no binding | – |
| B8 | binds | no binding | – |
| B9 | binds | no binding | – |
| B10 | binds | no binding | – |
| B11 | binds | no binding | – |
| B12 | binds | no binding | – |
| B13 | binds | no binding | – |
